From IntAct's records for PubMed 34706264 come the findings set out here.

B1: ORF3a protein (SARS-CoV-2), P0DTC3 (parent)
chain: MDLFMRIFTIGTVTLKQGEIKDATPSDFVRATATIPIQASLPFGWLIVGVALLAVFQSASKIITLKKRWQLALSKGVHFVCNLLLLFVTVYSHLLLVAAGLEAPFLYLYALVYFLQSINFVRIIMRLWLCWKCRSKNPLLYDANYFLCWHTNCYDYCIPYNSVTSSIVITSGDGTTSPISEHDYQIGGYTEKWESGVKDCVVLHSYFTSDYYQLYSTQLSTDTGVEHVTFFIYNKIVDEPEEHVQIHTIDGSSGVVNPVMEPIYDEPTTTTSVPL
partner: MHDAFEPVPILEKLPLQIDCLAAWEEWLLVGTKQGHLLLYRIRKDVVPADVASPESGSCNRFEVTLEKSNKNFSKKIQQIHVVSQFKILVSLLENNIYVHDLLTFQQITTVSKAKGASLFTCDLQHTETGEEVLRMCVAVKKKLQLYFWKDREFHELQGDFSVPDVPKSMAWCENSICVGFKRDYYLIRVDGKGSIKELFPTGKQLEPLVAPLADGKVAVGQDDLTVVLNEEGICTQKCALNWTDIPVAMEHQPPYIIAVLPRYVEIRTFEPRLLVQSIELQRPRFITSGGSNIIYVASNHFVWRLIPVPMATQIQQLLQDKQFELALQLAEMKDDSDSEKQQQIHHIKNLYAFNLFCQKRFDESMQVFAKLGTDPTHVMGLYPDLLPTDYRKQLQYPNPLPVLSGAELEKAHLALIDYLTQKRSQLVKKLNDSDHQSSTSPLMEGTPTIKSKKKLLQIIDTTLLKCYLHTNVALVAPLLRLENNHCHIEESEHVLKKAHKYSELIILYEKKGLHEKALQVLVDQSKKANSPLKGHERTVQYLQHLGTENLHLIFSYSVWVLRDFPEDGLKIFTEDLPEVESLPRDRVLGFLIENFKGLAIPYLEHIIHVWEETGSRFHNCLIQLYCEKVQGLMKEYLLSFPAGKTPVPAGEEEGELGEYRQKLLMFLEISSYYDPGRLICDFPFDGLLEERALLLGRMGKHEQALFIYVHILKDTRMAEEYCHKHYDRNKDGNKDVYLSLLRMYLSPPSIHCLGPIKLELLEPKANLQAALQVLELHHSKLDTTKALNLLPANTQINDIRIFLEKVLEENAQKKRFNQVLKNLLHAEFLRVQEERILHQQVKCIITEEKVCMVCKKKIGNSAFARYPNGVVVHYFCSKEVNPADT
B2: ORF3a protein (SARS-CoV-2), P0DTC3 (parent)
chain: B1 chain

The first assay covers variants of B1. The following applies: with vps39_human VPS39, Q96JC1.
Consider W193R, for which the “effect of a mutation on the interaction” value is given as “decreasing interaction strength”. Still for that read-out and setting: under S171E stands “disrupting interaction strength”.

Variants of B1 are the subject of another assay. Conditions: with vps39_human VPS39, Q96JC1. This is another data set of the same source.
As for Q57E, the “effect of a mutation on the interaction” value is on record as “with no effect”. Q116L: the “effect of a mutation on the interaction” value was “with no effect”. As for S58L, the “effect of a mutation on the interaction” value is “with no effect”.

Another assay covers variants of B2. Conditions: with stx4_human STX4, Q12846.
stx4_human STX4, Q12846, sequence (Q12846 whole entry): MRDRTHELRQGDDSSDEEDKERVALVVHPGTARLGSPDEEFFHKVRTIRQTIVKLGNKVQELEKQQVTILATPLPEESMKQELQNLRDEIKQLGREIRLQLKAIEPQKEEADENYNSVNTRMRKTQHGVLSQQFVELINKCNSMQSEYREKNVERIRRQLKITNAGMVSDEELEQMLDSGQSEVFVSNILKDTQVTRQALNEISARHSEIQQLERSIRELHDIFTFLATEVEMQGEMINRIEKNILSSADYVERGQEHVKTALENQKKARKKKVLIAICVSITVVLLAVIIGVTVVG
Take S171E: the “effect of a mutation on the interaction” value is given as “disrupting interaction strength”.

Variants of B2 are the subject of the next assay. The following applies: with vamp7_human VAMP7, P51809.
vamp7_human VAMP7, P51809, sequence (P51809 whole entry): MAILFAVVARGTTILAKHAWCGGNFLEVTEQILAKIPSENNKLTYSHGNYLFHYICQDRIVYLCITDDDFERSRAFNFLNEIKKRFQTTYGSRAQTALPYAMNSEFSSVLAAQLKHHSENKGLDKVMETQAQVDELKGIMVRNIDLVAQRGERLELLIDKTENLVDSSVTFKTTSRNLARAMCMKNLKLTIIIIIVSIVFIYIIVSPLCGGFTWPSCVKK
As for S171E, the “effect of a mutation on the interaction” value is listed as “disrupting interaction strength”.
